Reference: patent US20260183373A1

How the values were obtained:
Aβ(1-40) [1] = biological target: Aβ(1-40) (UniProt P05067)
Aβ(1-42) [2] = biological target: Aβ(1-42) (UniProt P05067)
Aβ(1-40) [3] = biological target: Aβ(1-40) (UniProt P05067); assay: cell-based or functional assay
Aβ(1-42) [4] = biological target: Aβ(1-42) (UniProt P05067); assay: cell-based or functional assay
Aβ(1-40) [5] = biological target: Aβ(1-40) (UniProt P05067); remark: listed apart in the source
Aβ(1-42) [6] = biological target: Aβ(1-42) (UniProt P05067); remark: listed apart in the source

Chain of neprolysin (NEP) (P08473 52-750 limits assumed): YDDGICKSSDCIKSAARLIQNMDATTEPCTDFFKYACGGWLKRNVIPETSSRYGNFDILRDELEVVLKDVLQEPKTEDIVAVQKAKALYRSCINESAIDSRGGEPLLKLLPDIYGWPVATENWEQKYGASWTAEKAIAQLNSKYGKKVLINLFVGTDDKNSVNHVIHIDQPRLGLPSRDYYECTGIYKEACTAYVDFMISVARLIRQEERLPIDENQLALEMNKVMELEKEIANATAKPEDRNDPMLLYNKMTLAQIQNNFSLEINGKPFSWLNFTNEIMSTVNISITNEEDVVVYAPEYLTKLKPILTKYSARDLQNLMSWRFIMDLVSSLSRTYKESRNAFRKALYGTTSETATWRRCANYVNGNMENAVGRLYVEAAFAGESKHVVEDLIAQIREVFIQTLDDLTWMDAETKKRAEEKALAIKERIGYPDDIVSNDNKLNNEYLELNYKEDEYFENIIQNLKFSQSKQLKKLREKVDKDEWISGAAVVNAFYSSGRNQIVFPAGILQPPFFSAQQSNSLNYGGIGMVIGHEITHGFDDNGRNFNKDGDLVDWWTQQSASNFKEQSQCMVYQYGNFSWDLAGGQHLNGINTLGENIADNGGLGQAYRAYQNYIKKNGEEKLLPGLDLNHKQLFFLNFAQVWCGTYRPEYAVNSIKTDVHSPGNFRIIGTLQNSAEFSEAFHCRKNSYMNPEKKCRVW
Chain of MMP2 (enzyme) (P08253 110-660): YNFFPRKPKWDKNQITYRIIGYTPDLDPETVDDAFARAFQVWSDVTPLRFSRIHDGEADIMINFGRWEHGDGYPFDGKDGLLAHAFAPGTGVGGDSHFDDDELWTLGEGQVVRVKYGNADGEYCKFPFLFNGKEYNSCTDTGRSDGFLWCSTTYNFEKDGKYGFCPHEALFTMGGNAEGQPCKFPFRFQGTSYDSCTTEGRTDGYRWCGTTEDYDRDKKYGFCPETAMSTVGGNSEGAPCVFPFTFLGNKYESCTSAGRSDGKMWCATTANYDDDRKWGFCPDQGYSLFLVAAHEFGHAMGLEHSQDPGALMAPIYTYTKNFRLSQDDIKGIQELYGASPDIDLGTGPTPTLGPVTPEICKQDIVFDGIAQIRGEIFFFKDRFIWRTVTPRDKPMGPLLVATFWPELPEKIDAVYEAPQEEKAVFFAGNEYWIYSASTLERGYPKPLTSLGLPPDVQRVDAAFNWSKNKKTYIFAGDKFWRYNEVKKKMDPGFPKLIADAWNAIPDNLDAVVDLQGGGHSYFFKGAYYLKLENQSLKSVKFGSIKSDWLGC

Substance | EC50 (read off the curve) (Aβ(1-40) [1]) | EC50 (read off the curve) (Aβ(1-42) [2]) | EC50 of Aβ cleavage (ELISA-based assay of intact Aβ) (Aβ(1-40) [3]) | EC50 of Aβ cleavage (ELISA-based assay of intact Aβ) (Aβ(1-42) [4]) | EC50 of Aβ(1-40) cleavage (intact Aβ by ELISA) (Aβ(1-40) [5]) | EC50 of Aβ(1-42) cleavage (intact Aβ by ELISA) (Aβ(1-42) [6])
NEP2 (enzyme) | 50 nM | 60 nM |  |  |  | 
insulin-degrading enzyme (IDE) (from UniProt P14735 42-1019) |  |  | 0.1 nM | 0.1 nM |  | 
neprolysin (NEP) (from UniProt P08473 52-750) (enzyme) |  |  | 12 nM | 12 nM | 19 nM | 44 nM
MMP2 (enzyme) | 90 nM |  |  |  |  | 
